The record followed here is paper PMC10896696 (The Journal of Cell Biology, 2024).

One may read the Kd as a measure of binding affinity in units of concentration. A higher Kd goes with lower affinity.

This assay concerns the target MBP-tag-fused HER2 intracellular domain (ICD, 712 aa-1255 aa) (human, UniProt P04626 712-1255). As to the kind of experiment: SPR.

Substitutions are numbered along the chain they refer to.

B1: MBP-tag-fused intracellular domain (ICD) of WT TβRI (148 aa-503 aa) (domain or fragment, human, UniProt P36897 148-503, looked up)
chain: CHNRTVIHHRVPNEEDPSLDRPFISEGTTLKDLIYDMTTSGSGSGLPLLVQRTIARTIVLQESIGKGRFGEVWRGKWRGEEVAVKIFSSREERSWFREAEIYQTVMLRHENILGFIAADNKDNGTWTQLWLVSDYHEHGSLFDYLNRYTVTVEGMIKLALSTASGLAHLHMEIVGTQGKPAIAHRDLKSKNILVKKNGTCCIADLGLAVRHDSATDTIDIAPNHRVGTKRYMAPEVLDDSINMKHFESFKRADIYAMGLVFWEIARRCSIGGIHEDYQLPYYDLVPSDPSVEEMRKVVCEQKLRPNIPNRWQSCEALRVMAKIMRECWYANGAARLTALRIKKTLSQLSQQEGIKM
Turning to B1, the Kd was 4.24 nM.

B2: MBP-tag-fused intracellular domain (ICD) of activated (GGD) TβRI (148 aa-503 aa) (domain or fragment, human, UniProt P36897 148-503, looked up)
chain: B1 chain with L46G, P47G, T57D
B2: the Kd was 2.68 nM.
